# Source: the RNAGym collection of RNA variant scans (doi:10.7554/elife.90254)
# B1: OR4K15 (parent)
# chain: GUUAACGGUCAUAGGCCAUGGAAACUAGGAGCACCAUUUCGCUGCCAGUGAAGAAAUGAACAAAGAAAAUCUGGGCCAGGCAGGCAUCAAAAGAAAUAGUCUUGCGCUCAACCAGAAAGUCUGUAAUCAUUUUAAGGGUA
# Variants of: B1
# Assay: self-cleavage, relative activity (ratio to wild type); higher = more cleavage; in vitro, sequencing; the parent is a self-cleaving ribozyme
row,Variant,self-cleavage
1,GUUAACGGUCAUAGGCCAUGGAAACUAGGAGCACCAUUACGCUGCCAGUGAAGAAAUGAACAAAGAAAAUCUGGGCCCGGCAGGCAUCAAAAGAAAUAGUCUUGCGCUCAACCAGAAAGUCUGUAAUCAUUUUAAGGGUA [U39A A78C],0.23
2,GUUAACGGUCAUAGGCCAUGGAAACUAGGAGCACCAUUUCGCUGCCAGUGAAGAAAUGAACAAAGAAAAUCUGGGCCAGGCAGGCAUCAAAAGAAAUAGCCUUGCGCUCAACCAGAAAGUCUGUAUUCAUUUUAAGGGUA [U100C A126U],0.32
3,GAUAACGGUCAUAGGCCAUGGAAACUAGGAGCACCAUUUCGCUGCCAGAGAAGAAAUGAACAAAGAAAAUCUGGGCCAGGCAGGCAUCAAAAGAAAUAGUCUUGCGCUCAACCAGAAAGUCUGUAAUCAUUUUAAGGGUA [U2A U49A],1.64
4,GUUAACGGUCAUAGGCCAUGGAUACUAGGAGCACCAUUUCGCUGCCAGUGAAGAAAUGAACAAAGAAAAUCUGGGCCAGGCAGGCAUCAAAAGAAAGAGUCUUGCGCUCAACCAGAAAGUCUGUAAUCAUUUUAAGGGUA [A23U U97G],1.35
5,GUUAACGGUCAUAGGCCAUGGAAACUAGGAGCACCAUUUCGCUGCCAGUGAAGGAAUGAACAGAGAAAAUCUGGGCCAGGCAGGCAUCAAAAGAAAUAGUCUUGCGCUCAACCAGAAAGUCUGUAAUCAUUUUAAGGGUA [A54G A63G],1.55
6,GUUAACGGUCAUAGGCCAUGGAAACUAGGAGCACCAUUUCGCUGCCAGUGAGGAAAUGAACAAAGAAAAUCUGGGCCAGGCAGGCAACAAAAGAAAUAGUCUUGCGCUCAACCAGAAAGUCUGUAAUCAUUUUAAGGGUA [A52G U87A],1.23
7,GUUAACGGUCAUAGGCCAUGGAAACUAGGAGCACCAUUUCGCUGCCAGUGAAGAAAUGAACAAAGAAAAUCUGGGCCAGGCAGGCACCAAAAGAAAUAGACUUGCGCUCAACCAGAAAGUCUGUAAUCAUUUUAAGGGUA [U87C U100A],0.18
8,GUUAACGGUCAUAGGCCAUGGAAACUAGGAGCACCAUUUCGCUGCCAGUGAAGAAAUGAACAAAGAAAAUCUGGGCCAGGCAGGCAUCAAAAGAGAUAGUCUUGCGCUCAACCAGAAAGUCUGCAAUCAUUUUAAGGGUA [A95G U124C],1.85
9,GUUAACGGUCAUAGGCCAUGGAAACUAGGAGCACCAUUUCGCUGCCGGUGAAGGAAUGAACAAAGAAAAUCUGGGCCAGGCAGGCAUCAAAAGAAAUAGUCUUGCGCUCAACCAGAAAGUCUGUAAUCAUUUUAAGGGUA [A47G A54G],1.22
10,GUGAACGGUCAUAGGCCAUGGAAACUAGGAGCACCAUUUCGCUGCCAGUGAAGAAAUGAACAAAGGAAAUCUGGGCCAGGCAGGCAUCAAAAGAAAUAGUCUUGCGCUCAACCAGAAAGUCUGUAAUCAUUUUAAGGGUA [U3G A66G],1.01
11,GUUAACGGUCAUAGGCCAUGGAAACUAGGAGCACCAUUUCGCUGCCAGUGCAGAAAUGAACAAAGAAAAUCUGGGCCAGGCAGGCAUCAAAAGAAAUAGUCUUGCGCUCAACCAGAAAGUCUGCAAUCAUUUUAAGGGUA [A51C U124C],0.98
12,GUUAACGGUCAUAGGCCAUGGAAAUUAGGAGCACCAUUUCGCUGCCAGUGAAGAAAUGAACAAAGAAAAUCUGGGCCAGGCAGGCAUCAAAAGAAAUAGUCUUGCGCUCAACCGGAAAGUCUGUAAUCAUUUUAAGGGUA [C25U A114G],0.37
13,GUUAACGGUCAUAGGCCAUGGAAACUAGGAGCACCAGUUCGCUGCCAGUGAAGAAAUGAACAAAGAAAAUCUGGGCCAGGCAGGCAUCAAAAGAAAUAGCCUUGCGCUCAACCAGAAAGUCUGUAAUCAUUUUAAGGGUA [U37G U100C],1.67
14,GUUAACGGUCAUAGGCCAUGGAAACUAGGAGCACCACUUCGCUGCCAGUGAAGAAAUGAACAAAGAAAAUCUGGGCCAGGCAGGCAUCAAAAGAAAUAGUCUUGCGCUCAACCAGAAAGUCUGUAAUCAUUUCAAGGGUA [U37C U133C],1.16
15,GUUAACGGUCAUAGGCCAUGGAAACUAGGAGCACCAUUUCGCUGCCAGUGAAGAAAUGGACAAAGAAAAUCUGGGCCAGGCAGGCAUCAAAAGAAAUAGUCUUGCGCUCAACCAGAAAGUCUGUAAUCAUUUUAAGGGAA [A59G U139A],2.02
16,GUUAACGGUCGUAGGCCAUGGAAACUAGGAGCACCAUUUCGCUGCCAGUGAAGAAAUGAACAAAGAAAAACUGGGCCAGGCAGGCAUCAAAAGAAAUAGUCUUGCGCUCAACCAGAAAGUCUGUAAUCAUUUUAAGGGUA [A11G U70A],0.92
17,GUUAACGGACAUAGGCCAUGGAAACUAGGAGCACCAUUUCGCUGCCAGUGAAGAAAUGAACAAGGAAAAUCUGGGCCAGGCAGGCAUCAAAAGAAAUAGUCUUGCGCUCAACCAGAAAGUCUGUAAUCAUUUUAAGGGUA [U9A A64G],1.1
18,GUUAACGGUCAUAGGCCAUGGAAACUAGGAGCACCAUUUCGCUGCCAGUGAAGAAAUGAACAAAGAAAAUCUGGACCAGGCAGGCAUCAAAAGAAAUAGUCUUGCGCUCAACCAGAAAGUCUGUAAUCAUUUUAGGGGUA [G75A A135G],0.04
19,GUUAACGGUCAUAGGCCAUGGAAACUAGGAGCACCAUUUCGCUGCCAGUGAAGAAAUGAACCAAGAGAAUCUGGGCCAGGCAGGCAUCAAAAGAAAUAGUCUUGCGCUCAACCAGAAAGUCUGUAAUCAUUUUAAGGGUA [A62C A67G],0.86
20,GUUAACGGUCAUAGGCCAUGGAAACUAGGAGCACCAUUUCGCUGCCAGUGAAGAAAUGAACAAAGAAAAUCUGGGCCAGGCAGGCAUCAAAAGAAAUAGUCUUGCGCACAACCAGAAAGUCUGUAAUCAUUCUAAGGGUA [U108A U132C],0.03
21,GUUAACGGUCAUAGGCCAUGGAAACUAGGAGCACCAUUUCGCUGCCAGUGAAGAAAUGAACAAAGCAAAUCUGGGCCAGGCAGGCAUCAAAAGAAAUAGUCUUGCGCUCAACCAGAAAGUCUGUAAUCAUUUUAAGGGUA [A66C],1.02
